The source of these data is US7410949.

Test in all cases: cell-based or functional assay
One assay has as its target Y4R.
For another assay, the target named is Y1R.
For assay [1], the target named is T1, human NPY2 receptor (human) (UniProt P49146).
T1 sequence (looked up): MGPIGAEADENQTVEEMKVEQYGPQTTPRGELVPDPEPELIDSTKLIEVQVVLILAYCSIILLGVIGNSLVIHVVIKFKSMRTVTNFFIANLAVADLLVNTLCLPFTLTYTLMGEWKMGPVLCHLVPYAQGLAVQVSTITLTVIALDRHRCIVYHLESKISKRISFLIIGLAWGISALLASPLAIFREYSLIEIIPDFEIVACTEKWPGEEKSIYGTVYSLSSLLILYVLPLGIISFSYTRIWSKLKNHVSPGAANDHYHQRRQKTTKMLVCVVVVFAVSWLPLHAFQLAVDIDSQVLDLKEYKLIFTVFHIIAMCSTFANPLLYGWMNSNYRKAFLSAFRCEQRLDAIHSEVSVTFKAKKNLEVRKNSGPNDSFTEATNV

Chain of Y1R (P25929 whole entry): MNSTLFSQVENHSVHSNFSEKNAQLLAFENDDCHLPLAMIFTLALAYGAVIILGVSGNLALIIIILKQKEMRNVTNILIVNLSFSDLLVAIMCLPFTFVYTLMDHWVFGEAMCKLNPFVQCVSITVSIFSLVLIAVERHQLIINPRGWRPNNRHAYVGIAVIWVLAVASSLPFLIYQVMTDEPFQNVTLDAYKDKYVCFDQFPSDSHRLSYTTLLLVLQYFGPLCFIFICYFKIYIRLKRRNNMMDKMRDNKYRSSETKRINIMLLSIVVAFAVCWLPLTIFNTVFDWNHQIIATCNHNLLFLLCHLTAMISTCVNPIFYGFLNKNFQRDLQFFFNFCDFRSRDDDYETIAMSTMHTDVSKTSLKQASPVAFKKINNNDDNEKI

Substance “Ac-Aib-Nle-Pqa-Arg-His-Tyr-Leu-Asn-Leu-Val-Thr-Arg-Gln-Arg-Tyr-NH2 (peptide)” had a Y4R EC50(nM) FLIPR in the assay with Y4R above 5000 nM.
“Ac-Ach-Nle-Pqa-Arg-His-Tyr-Leu-Asn-Leu-Val-Thr-Arg-Gln-Arg-Tyr-NH2 (peptide)” yielded a Y1R EC50(nM) FLIPR with Y1R above 5000 nM. This substance yielded a Y4R EC50(nM) FLIPR with Y4R above 5000 nM.
Turning to “Ac-2,2-Aic-Nle-Pqa-Arg-His-Tyr-Leu-Asn-Leu-Val-Thr-Arg-Gln-Arg-Tyr-NH2 (peptide)”, the Y1R EC50(nM) FLIPR with Y1R was above 5000 nM. For the same substance, in the assay with Y4R, the Y4R EC50(nM) FLIPR is above 5000 nM.
For the substance “Ac-1,1-Aic-Nle-Pqa-Arg-His-Tyr-Leu-Asn-Leu-Val-Thr-Arg-Gln-Arg-Tyr-NH2 (Pk B) (peptide)”, the Y1R EC50(nM) FLIPR in the assay with Y1R came out at 2650 nM. This substance also displayed a Y4R EC50(nM) FLIPR with Y4R above 5000 nM. Besides, in assay [1], the Y2R EC50(nM) FLIPR amounted to 6 nM and the Y2R IC50(nM) cAMP is 1 nM.
Take “Ac-Acp-Nle-Pqa-Arg-His-Tyr-Leu-Asn-Leu-Val-Thr-Arg-Gln-Arg-Tyr-NH2 (peptide)”: in the assay with Y1R, the Y1R EC50(nM) FLIPR was above 5000 nM. This substance also yielded a Y4R EC50(nM) FLIPR in the assay with Y4R above 5000 nM.
Regarding “Ac-1,1-Aic-Nle-Pqa-Arg-His-Tyr-Leu-Asn-Leu-Val-Thr-Arg-Gln-Arg-Tyr-NH2 (Pk A) (peptide)”, the Y1R EC50(nM) FLIPR with Y1R stood at 1650 nM. Besides, the Y4R EC50(nM) FLIPR with Y4R was above 5000 nM. In assay [1], this substance returned a Y2R EC50(nM) FLIPR of 8.8 nM and a Y2R IC50(nM) cAMP of 0.64 nM.
